Test results as given in US6531296B1, “Nuclear tyrosine kinase Rak” (The University of North Carolina at Chapel Hill, priority 1995, dated 2003).
No end group written: not given here.

Target: T1, CDC2 (Homo sapiens, UniProt P06493)
T1 construct: incubated with immunoprecipitated CDC2; endogenous in cells
Assay: In vitro kinase assay of immunoprecipitated CDC2 with Histone H1 as exogenous substrate
Assay type: biochemical
Experimental: The 110 N-terminal amino acids of Rak were produced as a GST fusion protein (RAKNT:GST) and incubated with immunoprecipitated CDC2, and subjected to an in vitro kinase assay with Histone H1 added as an exogenous substrate, and analyzed by SDS-PAGE. […] This fusion protein was incubated with immunoprecipitated CDC2, and subjected to an in vitro kinase assay with Histone H1 added as an exogenous substrate, and analyzed by SDS-PAGE.
The CDC2 binding domain of RAK appears to be between amino acids 86-110. Since the binding of RAK to CDC2 is exceptionally strong, the biological function of this interaction was explored.

T1 sequence (P06493 whole entry): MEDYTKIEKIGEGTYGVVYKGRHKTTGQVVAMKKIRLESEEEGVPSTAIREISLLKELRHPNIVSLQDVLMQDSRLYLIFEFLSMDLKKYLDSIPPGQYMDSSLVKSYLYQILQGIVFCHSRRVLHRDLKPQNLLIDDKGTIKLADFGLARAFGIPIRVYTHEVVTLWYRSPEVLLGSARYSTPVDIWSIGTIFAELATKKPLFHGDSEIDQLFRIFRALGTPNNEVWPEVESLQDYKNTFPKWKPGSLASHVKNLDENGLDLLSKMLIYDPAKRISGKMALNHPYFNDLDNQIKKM

Sequence: KRRDGSSQQLQ [SEQ ID NO:4]
- inhibition of CDC2 histone H1 phosphorylation activity: reproducibly attenuated
